The target of assay [1] is T1, human α11β1 expressed on the surface of CHO-K1 cells (human, UniProt Q9UKX5 23-1188). Briefly: FACS titration on Human CHO-α11 cells. As for the experimental part: 200,000 cells (wild-type CHO-K1 cells or CHO-K1 cells expressing human α11) were incubated with each antibody at desired concentrations in FACS buffer for 30 min at 4° C. Then, the cells were washed with FACS buffer and incubated with secondary antibody at 1:100 dilution for 30 minutes at 4° C. Cells were then washed and fixed with 1% PFA in PBS for 20 minutes at room temperature; washed again and read on a cytometer in FACS buffer.

Assay [2] has as its target T2, recombinant human α11β1 (human, UniProt Q9UKX5 23-1141; P05556 21-728).
T2 construct: Coated in ELISA; ELISA and SPR material treated as one molecule; also called HIS-tagged human α11β1; integrin alpha 11 beta 1
As to the kind of experiment: SPR, HIS-tagged human α11β1 captured by anti-HIS, antibody as analyte, single-cycle kinetics. As for the experimental part: (§1) The affinity of antibodies for human α11β1 was measured by surface plasmon resonance assay (SPR). Affinity was measured at pH 7.6 and 25° C. with a Biacore T200 instrument. Anti-HIS antibody was immobilized on the SPR sensor surface using EDC/NHS covalent attachment. HIS-tagged human α11β1 was captured on the sensor surface and a single-cycle kinetics assay was used. Increasing concentrations of test antibody were injected in series over the sensor-bound α11β1. Dissociation was monitored for 1000 seconds. A sensor surface with only anti-HIS antibody and a series of blank injections were used to double-reference subtract the data. A 1:1 Langmuir model was fit to the data to estimate the kinetic association and dissociation constants. The affinity (equilibrium dissociation constant) of the interaction was calculated by dividing the kinetic dissociation constant by the kinetic association constant. Between injection cycles α11β1 and bound antibody were removed with an injection of 10 mM glycine at pH 1.5.
The binding affinity of antibodies for the α11β1 Headpiece and α11β1 I Domain as measured by SPR is shown in FIG. 10A and FIG. 10B, respectively.
For orientation: In SPR one partner is held on a chip, and binding of the other changes the refractive index at the surface.

The target in assay [3] is T3, α11β1 on human myofibroblasts (MF) (human, UniProt Q9UKX5 23-1188; P05556 21-798).
T3 construct: whole, on cells
As to the kind of experiment: FACS titration on human myofibroblasts. As for the experimental part: (§2) Human Pulmonary Fibroblasts (ScienCell) were cultured in complete Fibroblast Growth Medium (ScienCell) until 80% confluent in T-150 flasks. Cells were washed and harvested using Accutase. Cells were seeded into T-150 flasks at 7,500 cells/cm² in complete FGF and cultured for 72 hours. Cells were then washed and starved in serum reduced medium for 24 hours. After starvation, cells were treated with TGFβ-1 (R&D Systems) for 72 hours. Cells were harvested using Accutase and seeded in 96-well conical bottom plates. Cells were blocked with Heat Inactived Fetal Bovine Serum (Gibco) for 30 minutes at 4° C. Cells were then incubated with anti-α11 antibodies at the doses described in each figure for 30 minutes at 4° C. A human anti-α11 antibody (Creative BioLabs) was included as a positive control as well as the appropriate IgG isotype negative controls. Cells were washed twice and incubated with PE conjugated secondary antibodies specific to the IgG class of the anti-α11 antibodies being tested for 30 minutes at 4° C. Cells were washed twice and fixed in 1% PFA for 30 minutes. Cells were acquired on a FACS Verse […]. Data were analyzed by gating on single cells and determining the geometric Mean Fluorescence Intensity (gMFI) in the PE channel for each sample.

In a further assay the target is Mouse CHO-α11 (mouse, UniProt P61622). Briefly: FACS titration on Mouse CHO-α11 cells.
Assay [4] has as its target T2, recombinant human α11β1. As to the kind of experiment: SPR (Biacore T200), HIS-tagged human α11β1 captured on anti-HIS, single-cycle kinetics, 1:1 Langmuir fit. As for the experimental part:
as §1

The next assay concerns the target T4, recombinant mouse α11β1 (mouse, UniProt P61622 23-1141; P09055 21-728, limits assumed).
T4 construct: also called murine α11β1
As to the kind of experiment: ELISA on recombinant mouse α11β1. As for the experimental part:
(§3) 0.25 μg/mL of target antigen (recombinant human or mouse α11β1) was plated in a 96-well plate over night at 4° C. Plates were washed (PBS with 0.1% Tween-20), blocked (PBS with 2% BSA and 0.05% Tween-20) for 1 hour at room temperature and incubated with a range of antibody concentrations for 1 hour at room temperature. Subsequently, plates were washed and incubated with biotinylated anti-rabbit/mouse/human IgG in a 1:1000 dilution buffer and incubated for 1 hour at room temperature. After washing the plates, Streptavidin HRP was added at 1:200 in dilution buffer and incubated for 1 hour at room temperature. Ultra TMB ELISA substrate solution was added and the plates incubated for 5 minutes on a plate shaker. The reaction was stopped by adding stop solution to each well and plates were read at 450 nm.
In general terms: An ELISA detects its analyte on a solid surface through an enzyme-linked reagent.

Assay [5] concerns the target T1, human α11β1 expressed on the surface of …. Briefly: cell-based or functional assay.
For assay [6], the target named is T3, α11β1 on human myofibroblasts (MF). As to the kind of experiment: FACS on human myofibroblasts. As for the experimental part:
as §2

Assay [7] addresses T5, in-house generated I domain of α11β1 (human, UniProt Q9UKX5 159-349, limits assumed).
T5 construct: domain: I domain; also called human α11β1 I domain; α11β1 I Domain
T5 sequence (looked up): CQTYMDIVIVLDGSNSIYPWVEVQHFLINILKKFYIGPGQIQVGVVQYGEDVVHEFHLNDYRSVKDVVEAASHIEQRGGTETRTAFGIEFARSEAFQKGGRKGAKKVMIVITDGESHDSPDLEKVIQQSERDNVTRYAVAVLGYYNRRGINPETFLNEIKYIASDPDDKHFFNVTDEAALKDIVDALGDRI
Briefly: ELISA on the human α11β1 I domain.

Assay [8] addresses T2, recombinant human α11β1. As to the kind of experiment: ELISA on recombinant human α11β1. As for the experimental part: as §3
Assay [9] addresses T1, human α11β1 expressed on the surface of …. Briefly: cell-based or functional assay. The source holds these as a separate data set.
Assay [10] concerns the target T5, in-house generated I domain of α11β1. As to the kind of experiment: SPR, single-cycle injections of 33, 100 and 300 nM over the a11b1 I Domain.

One may read the EC50 as the concentration that produces a half-maximal response. For orientation: Kd means the equilibrium constant for the complex coming apart. What is called koff is the rate constant with which the complex falls apart. One may read the kon as the rate constant with which the complex forms.

Several values for one entry are separate records, joined by “and”; a condition that tells them apart may be missing. Equal values may be shown once.

T1 sequence (Q9UKX5 23-1188): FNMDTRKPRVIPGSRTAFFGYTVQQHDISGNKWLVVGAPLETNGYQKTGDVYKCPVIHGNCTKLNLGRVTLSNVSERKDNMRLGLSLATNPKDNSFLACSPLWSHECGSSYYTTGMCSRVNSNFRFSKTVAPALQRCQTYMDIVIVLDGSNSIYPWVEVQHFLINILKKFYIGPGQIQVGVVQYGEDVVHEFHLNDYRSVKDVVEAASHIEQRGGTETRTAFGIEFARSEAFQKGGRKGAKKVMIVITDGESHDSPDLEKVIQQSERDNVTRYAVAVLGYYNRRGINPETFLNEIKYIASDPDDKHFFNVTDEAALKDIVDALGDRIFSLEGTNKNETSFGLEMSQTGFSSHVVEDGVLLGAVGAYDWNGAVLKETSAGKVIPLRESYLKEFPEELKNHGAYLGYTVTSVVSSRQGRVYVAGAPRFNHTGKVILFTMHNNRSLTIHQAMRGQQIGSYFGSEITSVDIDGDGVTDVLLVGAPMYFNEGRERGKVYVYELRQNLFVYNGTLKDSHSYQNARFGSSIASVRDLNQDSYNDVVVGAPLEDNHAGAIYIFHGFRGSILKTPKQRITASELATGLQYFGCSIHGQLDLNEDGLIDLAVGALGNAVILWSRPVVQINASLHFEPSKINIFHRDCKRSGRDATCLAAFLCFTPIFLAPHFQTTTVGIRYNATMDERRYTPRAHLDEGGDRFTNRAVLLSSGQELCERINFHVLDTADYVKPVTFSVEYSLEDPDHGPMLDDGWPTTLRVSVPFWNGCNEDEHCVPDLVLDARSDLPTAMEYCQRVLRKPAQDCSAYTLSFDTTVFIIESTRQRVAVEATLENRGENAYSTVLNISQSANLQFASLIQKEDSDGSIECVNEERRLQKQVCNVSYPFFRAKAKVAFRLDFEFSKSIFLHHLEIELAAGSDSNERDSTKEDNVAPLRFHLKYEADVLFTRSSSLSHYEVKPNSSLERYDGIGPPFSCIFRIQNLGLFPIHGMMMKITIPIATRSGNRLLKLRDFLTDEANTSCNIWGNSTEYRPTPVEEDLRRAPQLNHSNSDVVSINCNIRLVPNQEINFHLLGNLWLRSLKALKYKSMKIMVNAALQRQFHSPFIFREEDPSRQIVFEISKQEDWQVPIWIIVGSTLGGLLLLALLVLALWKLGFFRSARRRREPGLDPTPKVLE
T3 sequence (Q9UKX5 23-1188, chain 1 of 2): as the sequence (Q9UKX5 23-1188) above
T3 sequence (P05556 21-798, chain 2 of 2): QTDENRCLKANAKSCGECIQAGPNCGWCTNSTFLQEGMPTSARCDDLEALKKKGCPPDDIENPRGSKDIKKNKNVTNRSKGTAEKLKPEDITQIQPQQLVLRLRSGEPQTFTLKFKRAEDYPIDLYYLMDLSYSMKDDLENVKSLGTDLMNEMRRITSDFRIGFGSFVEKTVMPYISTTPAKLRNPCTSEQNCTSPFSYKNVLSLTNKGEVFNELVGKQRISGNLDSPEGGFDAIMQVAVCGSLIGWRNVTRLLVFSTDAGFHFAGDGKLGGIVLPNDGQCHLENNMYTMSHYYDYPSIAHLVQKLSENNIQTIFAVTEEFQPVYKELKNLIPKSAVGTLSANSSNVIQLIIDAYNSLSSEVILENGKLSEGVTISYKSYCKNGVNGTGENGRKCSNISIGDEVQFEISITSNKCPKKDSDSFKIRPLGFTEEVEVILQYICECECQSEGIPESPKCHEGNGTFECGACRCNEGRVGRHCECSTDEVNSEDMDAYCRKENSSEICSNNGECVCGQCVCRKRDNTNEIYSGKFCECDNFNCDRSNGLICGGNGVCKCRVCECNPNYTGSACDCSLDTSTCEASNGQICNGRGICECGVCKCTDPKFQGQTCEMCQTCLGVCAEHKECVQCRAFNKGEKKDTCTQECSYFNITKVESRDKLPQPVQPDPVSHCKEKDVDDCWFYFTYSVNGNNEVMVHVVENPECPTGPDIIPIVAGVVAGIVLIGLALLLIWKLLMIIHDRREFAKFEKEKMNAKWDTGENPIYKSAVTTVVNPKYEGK
T2 sequence (Q9UKX5 23-1141 limits assumed, chain 1 of 2): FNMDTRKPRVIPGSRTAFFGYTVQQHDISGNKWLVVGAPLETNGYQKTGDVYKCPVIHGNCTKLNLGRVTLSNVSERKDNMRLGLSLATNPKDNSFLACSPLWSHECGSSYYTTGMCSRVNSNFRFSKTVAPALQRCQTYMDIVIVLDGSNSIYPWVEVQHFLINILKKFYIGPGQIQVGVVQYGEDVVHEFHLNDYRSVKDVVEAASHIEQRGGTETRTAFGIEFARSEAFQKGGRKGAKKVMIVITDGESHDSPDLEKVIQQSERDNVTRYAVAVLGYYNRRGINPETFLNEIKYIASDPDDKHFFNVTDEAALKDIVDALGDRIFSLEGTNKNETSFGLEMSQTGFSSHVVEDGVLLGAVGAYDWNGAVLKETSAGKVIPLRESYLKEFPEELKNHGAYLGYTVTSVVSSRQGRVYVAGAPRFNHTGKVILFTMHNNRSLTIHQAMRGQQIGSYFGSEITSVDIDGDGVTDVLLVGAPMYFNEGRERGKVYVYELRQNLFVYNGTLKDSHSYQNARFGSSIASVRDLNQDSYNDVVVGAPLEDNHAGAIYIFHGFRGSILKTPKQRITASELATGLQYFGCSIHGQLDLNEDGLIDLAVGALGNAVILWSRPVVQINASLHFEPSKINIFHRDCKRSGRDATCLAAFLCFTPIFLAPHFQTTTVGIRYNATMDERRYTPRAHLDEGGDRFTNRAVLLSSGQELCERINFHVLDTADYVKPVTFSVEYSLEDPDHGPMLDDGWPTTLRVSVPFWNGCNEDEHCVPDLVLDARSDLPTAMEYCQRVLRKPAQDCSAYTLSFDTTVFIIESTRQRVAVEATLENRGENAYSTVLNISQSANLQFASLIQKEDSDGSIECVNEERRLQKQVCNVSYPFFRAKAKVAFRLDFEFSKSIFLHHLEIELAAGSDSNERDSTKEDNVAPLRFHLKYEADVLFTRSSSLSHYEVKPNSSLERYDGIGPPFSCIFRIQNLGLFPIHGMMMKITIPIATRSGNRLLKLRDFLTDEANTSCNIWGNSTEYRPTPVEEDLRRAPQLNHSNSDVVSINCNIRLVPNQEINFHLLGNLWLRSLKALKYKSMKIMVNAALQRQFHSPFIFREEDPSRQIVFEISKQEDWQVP
T2 sequence (P05556 21-728 limits assumed, chain 2 of 2): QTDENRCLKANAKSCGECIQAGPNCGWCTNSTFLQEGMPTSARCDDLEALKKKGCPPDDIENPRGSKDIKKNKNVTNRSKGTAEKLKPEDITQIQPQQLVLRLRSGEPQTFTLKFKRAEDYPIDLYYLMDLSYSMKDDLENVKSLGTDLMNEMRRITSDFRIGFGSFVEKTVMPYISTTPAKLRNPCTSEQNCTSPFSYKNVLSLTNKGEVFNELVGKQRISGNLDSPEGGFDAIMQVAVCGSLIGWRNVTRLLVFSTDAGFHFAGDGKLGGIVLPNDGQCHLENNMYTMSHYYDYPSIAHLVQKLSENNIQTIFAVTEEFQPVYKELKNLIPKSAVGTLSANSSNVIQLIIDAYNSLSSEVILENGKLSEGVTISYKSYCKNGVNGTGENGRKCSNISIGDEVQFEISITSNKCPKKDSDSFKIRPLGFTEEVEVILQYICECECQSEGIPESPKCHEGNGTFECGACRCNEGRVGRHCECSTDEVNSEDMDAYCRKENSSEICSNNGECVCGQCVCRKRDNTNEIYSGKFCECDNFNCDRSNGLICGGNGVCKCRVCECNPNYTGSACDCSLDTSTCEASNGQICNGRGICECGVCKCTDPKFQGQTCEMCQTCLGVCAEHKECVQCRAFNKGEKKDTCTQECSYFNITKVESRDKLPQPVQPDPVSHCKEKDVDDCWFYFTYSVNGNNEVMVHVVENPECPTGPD
Chain of Mouse CHO-α11 (P61622 23-1188): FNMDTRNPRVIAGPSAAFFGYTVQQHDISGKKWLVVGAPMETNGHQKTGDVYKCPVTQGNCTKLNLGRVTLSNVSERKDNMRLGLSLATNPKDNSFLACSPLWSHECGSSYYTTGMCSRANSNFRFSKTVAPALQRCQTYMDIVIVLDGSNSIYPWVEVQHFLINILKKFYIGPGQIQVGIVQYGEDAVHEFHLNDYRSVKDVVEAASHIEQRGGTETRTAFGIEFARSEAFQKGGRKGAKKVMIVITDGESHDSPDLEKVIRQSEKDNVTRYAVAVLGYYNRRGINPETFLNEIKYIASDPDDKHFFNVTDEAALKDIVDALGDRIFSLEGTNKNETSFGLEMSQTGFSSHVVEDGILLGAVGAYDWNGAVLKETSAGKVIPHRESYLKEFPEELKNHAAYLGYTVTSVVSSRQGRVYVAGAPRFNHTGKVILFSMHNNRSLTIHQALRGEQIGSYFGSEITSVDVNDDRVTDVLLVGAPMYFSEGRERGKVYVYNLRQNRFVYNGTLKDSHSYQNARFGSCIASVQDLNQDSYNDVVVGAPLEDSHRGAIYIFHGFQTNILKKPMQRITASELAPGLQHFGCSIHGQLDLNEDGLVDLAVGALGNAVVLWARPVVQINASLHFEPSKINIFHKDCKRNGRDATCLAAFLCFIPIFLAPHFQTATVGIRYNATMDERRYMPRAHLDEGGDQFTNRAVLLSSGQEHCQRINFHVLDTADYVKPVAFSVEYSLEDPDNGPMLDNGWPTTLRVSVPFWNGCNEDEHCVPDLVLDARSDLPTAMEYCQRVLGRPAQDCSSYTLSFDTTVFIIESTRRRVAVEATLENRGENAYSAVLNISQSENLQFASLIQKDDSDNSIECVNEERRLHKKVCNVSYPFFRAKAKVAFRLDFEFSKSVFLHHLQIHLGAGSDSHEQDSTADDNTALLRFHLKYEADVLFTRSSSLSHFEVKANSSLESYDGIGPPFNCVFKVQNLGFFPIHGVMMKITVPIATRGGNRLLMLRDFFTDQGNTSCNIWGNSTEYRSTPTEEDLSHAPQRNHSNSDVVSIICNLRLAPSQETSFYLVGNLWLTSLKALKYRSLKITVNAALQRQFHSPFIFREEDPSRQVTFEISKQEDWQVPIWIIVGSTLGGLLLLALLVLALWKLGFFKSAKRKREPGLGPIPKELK

B1: 79E3E3 (antibody, V domains shown)
VH: QIQLVQSGPEVKKPGESVKISCKASGYTFTDYAMNWVKQAPGNGLKWMGWINTQTGKPTYADDFKQRFVFSLETSARTTYLQINNLNIEDTATYFCTRLGTGNTKGFAYWGQGTLVTVSS
VL: DILINQSPASLTVSAGERVTMSCKSSQSLLYSENNQDYLAWYQQKPGQFPKLLIYGASNRHTGVPDRFTGSGSGTDFTLTISSVQAEDLADYYCEQTYRYPFTFGSGTKLEIK
notes: rat hybridoma mAb
As for B1, the EC50 in assay [1] was 7.3 nM; in assay [3], 0.5 µg/mL and 3.35 nM; with Mouse CHO-α11, 3.5 nM. In addition, the Kd in the assay with recombinant human α11β1 [2] stood at 0.01 nM. Further, the koff with recombinant human α11β1 [4] was determined as 0.000108 s⁻¹. For the same molecule, the on-rate (kon) in the assay with recombinant human α11β1 [4] worked out at 1.07e+07 M⁻¹ s⁻¹. For the same molecule, the binding result with recombinant mouse α11β1 is listed as “binds”. Moreover, the “IC50 of blocking cell adhesion to type I collagen” value in assay [5] was determined as 9.4 nM.

B2: 24E4G6 (antibody, V domains shown)
VH: EVQLVESGGSLVQPGGSLKLSCVASGYTFSNYWMDWVRQSPGKSLEWIGEINTDGRRTNYAPSIKDRFTISRDNAKSTLYLQMSNVKSDDTAIYYCTILRVYPHYFDYWGQGVMVTVSS
VL: DVVMTQTPPSLSVAIGQSVSISCKSSQSLVYSDGETYLHWFLQSPGRSPKRLIYHVSNLGSGVPDRFSGTGSLTDFTLRISRVEAEDLGVYYCAQTTHFPPTFGAGTKLELK
notes: rat hybridoma mAb
Consider B2, for which the values for the binding result (in [6]; in assay [7]; with recombinant human α11β1 [8]) were “binds”, “no binding (tested: 2 µg/ml)” and “binds”, respectively.

B3: A11B1_16E10 (antibody, V domains shown)
VH: QSLEESGGDLVKPGASLTLTCRVSGFSFSSSYYMCWVRQAPGKGLEWIACIGTTRGSTYYATWAKGRFTISKISSTTVTLQMTSLTDADTATYFCARDATGYRINTIGLYFNLWGPGTLVTVSS
VL: AFELTQTPSSVEAAVGGTPTIKCQASQTIYSYLSWYQQKPGQPPKLLIYEASKLASGVPSRFSGSGSGTDYTLTISDLECADAATYYCQSYHGTASTEYNTFGGGTEVVVRG
notes: recombinant rabbit IgG, full chains
Regarding B3, the 50% effective concentration (EC50) is 0.35 nM in assay [1]; 0.051 µg/mL and 0.3 nM in assay [3]. In the assay with recombinant human α11β1 [2], the dissociation constant (Kd) stood at 0.048 nM. In addition, the “IC50, inhibition of adhesion of CHO-α11 cells to rat tail type I collagen” value in assay [9] worked out at 0.39 nM. The binding result in assay [10] is on record as “no binding (tested: 300 nM)”; with recombinant mouse α11β1 it was “no binding”. For the same molecule, in the assay with recombinant human α11β1 [4], the off-rate constant (koff) amounted to 0.000234 s⁻¹.
